In the supplement of paper PMC10724198:
± gives the standard deviation of the averaged measurements.

Assays:
Saccharomyces cerevisiae [1] = experiment: protein stability index of tFT-peptide fusion (C-terminal peptide) (PSI (0-1 scale)); higher = more stable (slower turnover)
Procedure: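 MPS profiling in S. cerevisiae of the tFT-X12 degron library: putative degron peptides plus stable controls, 12 aa, fused to the C-terminus of a sfGFP-mCherry timer. Cells are FACS-sorted into 8 mCherry/sfGFP bins and deep-sequenced. PSI runs from 0 (unstable) to 1 (stable). Backgrounds are wild type, das1Δ and doa10Δ at 30 °C, and wild type, das1Δ, cdc34-1 and cdc53-1 at 37 °C; 2-3 technical replicates each.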

Saccharomyces cerevisiae [2] = experiment: as above; settings: genetic background: wild type; temperature: 30 C
[3] = genetic background: cdc34-1, temperature: 37 C
[4] = genetic background: cdc53-1, temperature: 37 C
[5] = genetic background: das1 deletion, temperature: 30 C
[6] = genetic background: das1 deletion, temperature: 37 C
[7] = genetic background: doa10 deletion, temperature: 30 C
[8] = genetic background: wild type, temperature: 30 C
[9] = genetic background: wild type, temperature: 37 C
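Also: PSI is a weighted mean of sequencing reads over stability bins, variants kept only with over 10 reads, mCherry proximal and sfGFP distal, peptide attached via GGGS linker.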

Row | Sequence | protein stability index (Saccharomyces cerevisiae [1]; [3]) | protein stability index (Saccharomyces cerevisiae [1]; [4]) | protein stability index (Saccharomyces cerevisiae [1]; [5]) | protein stability index (Saccharomyces cerevisiae [1]; [6]) | protein stability index (Saccharomyces cerevisiae [1]; [7]) | protein stability index (Saccharomyces cerevisiae [1]; [8]) | protein stability index (Saccharomyces cerevisiae [1]; [9]) | protein stability index (Saccharomyces cerevisiae [2])
1 | ACIFDMMWFWLF | 0.692 ± 0.068 | 0.721 ± 0.008 | 0.577 ± 0.034 | 0.75 ± 0.0093 | 0.427 ± 0.02 | 0.46 ± 0.02 | 0.573 ± 0.006 | 0.499 ± 0.032
2 | YLFFSCIFTFSC | 0.121 ± 0.025 | 0.198 ± 0.027 | 0.179 ± 0.024 | 0.331 ± 0.014 | 0.189 ± 0.011 | 0.211 ± 0.091 | 0.273 ± 0.018 | 0.316 ± 0.025
3 | DGSFCLLYMTIA | 0.504 ± 0.066 | 0.5745 ± 0.002 | 0.429 ± 0.02 | 0.615 ± 0.046 | 0.293 ± 0.0055 | 0.332 ± 0.016 | 0.4919 ± 0.0048 | 0.454 ± 0.01
4 | SSLAKFQLISTY | 0.429 ± 0.0045 | 0.464 ± 0.011 | 0.316 ± 0.04 | 0.508 ± 0.049 | 0.267 ± 0.003 | 0.305 ± 0.016 | 0.46 ± 0.0088 | 0.394 ± 0.017
5 | VDVWRWRGLRVG | 0.635 ± 0.029 | 0.73743 ± 0.00065 | 0.61 ± 0.013 | 0.7528 ± 0.00093 | 0.3592 ± 0.0023 | 0.414 ± 0.031 | 0.599 ± 0.0082 | 0.555 ± 0.11
6 | LYVQSVCFSVPR | 0.463 ± 0.024 | 0.537 ± 0.017 | 0.445 ± 0.021 | 0.5091 ± 0.002 | 0.497 ± 0.052 | 0.431 ± 0.012 | 0.486 ± 0.0089 | 0.422 ± 0.012
7 | VFLFSLLIVFFP | 0.213 ± 0.0089 | 0.3 ± 0.0087 | 0.226 ± 0.029 | 0.385 ± 0.00051 | 0.1951 ± 0.0019 | 0.216 ± 0.028 | 0.3338 ± 0.0025 | 0.219 ± 0.075
8 | PVLIFTWVIVCH | 0.0357 ± 0.011 | 0.0674 ± 0.026 | 0.0676 ± 0.026 | 0.142 ± 0.013 | 0.0332 ± 0.0019 | 0.0533 ± 0.023 | 0.0899 ± 0.012 | 0.162 ± 0.036
9 | LLRFFPLLLFSF | 0.135 ± 0.048 | 0.114 ± 0.01 | 0.213 ± 0.03 | 0.278 ± 0.02 | 0.181 ± 0.0067 | 0.116 ± 0.016 | 0.159 ± 0.013 | 0.122 ± 0.083
10 | PRQPSKSNASNR | 0.692 ± 0.044 | 0.7277 ± 0.00076 | 0.623 ± 0.023 | 0.722 ± 0.015 | 0.64909 ± 0.00052 | 0.635 ± 0.0095 | 0.701 ± 0.022 | 0.582 ± 0.13
11 | YAFSTCTILIRF | 0.187 ± 0.0071 | 0.154 ± 0.044 | 0.211 ± 0.034 | 0.338 ± 0.015 | 0.38 ± 0.013 | 0.222 ± 0.018 | 0.3071 ± 0.0018 | 0.328 ± 0.048
12 | RIIKIRAISINL | 0.575 ± 0.062 | 0.66 ± 0.065 | 0.523 ± 0.023 | 0.607 ± 0.061 | 0.454 ± 0.03 | 0.468 ± 0.016 | 0.609 ± 0.03 | 0.501 ± 0.022
13 | LLFCFSVILFTC | 0.0922 ± 0.0021 | 0.189 ± 0.062 | 0.187 ± 0.033 | 0.291 ± 0.018 | 0.0562 ± 0.022 | 0.0652 ± 0.018 | 0.0808 ± 0.0077 | 0.147 ± 0.018
14 | LKTKKKKTNTQK | 0.627 ± 0.0068 | 0.633 ± 0.057 | 0.717 ± 0.03 | 0.68 ± 0.038 | 0.67 ± 0.033 | 0.715 ± 0.056 | 0.683 ± 0.0086 | 0.495 ± 0.037
15 | VCVWVDILAFCS | 0.0795 ± 0.016 | 0.245 ± 0.097 | 0.183 ± 0.026 | 0.278 ± 0.0048 | 0.147 ± 0.019 | 0.174 ± 0.019 | 0.252 ± 0.018 | 0.227 ± 0.05
16 | KTDVYPVSFFTC | 0.532 ± 0.013 | 0.738 ± 0.0099 | 0.645 ± 0.043 | 0.711 ± 0.055 | 0.0924 ± 0.019 | 0.0951 ± 0.026 | 0.133 ± 0.013 | 0.184 ± 0.028
17 | SRSYNSPSLYVC | 0.498 ± 0.061 | 0.6496 ± 0.0057 | 0.605 ± 0.029 | 0.712 ± 0.0089 | 0.0903 ± 0.0041 | 0.102 ± 0.016 | 0.109 ± 0.0097 | 0.147 ± 0.009
18 | VARWVYALGLLC | 0.581 ± 0.035 | 0.6488 ± 0.0027 | 0.545 ± 0.028 | 0.677 ± 0.025 | 0.2 ± 0.0064 | 0.221 ± 0.011 | 0.377 ± 0.013 | 0.312 ± 0.013
19 | LRLCMVFAWFLT | 0.388 ± 0.011 | 0.508 ± 0.039 | 0.351 ± 0.029 | 0.493 ± 0.021 | 0.1836 ± 0.00086 | 0.216 ± 0.03 | 0.3924 ± 0.0028 | 0.337 ± 0.023
20 | AWPGRLWYFWLA | 0.655 ± 0.028 | 0.7846 ± 0.0056 | 0.637 ± 0.018 | 0.755 ± 0.011 | 0.189 ± 0.0052 | 0.215 ± 0.025 | 0.4106 ± 0.003 | 0.251 ± 0.14
21 | CYKYTYVKNNMI | 0.689 ± 0.042 | 0.7646 ± 0.0044 | 0.642 ± 0.038 | 0.753 ± 0.014 | 0.197 ± 0.013 | 0.231 ± 0.044 | 0.555 ± 0.014 | 0.249 ± 0.051
22 | SVFWCFHVLFWS | 0.425 ± 0.039 | 0.4971 ± 0.0027 | 0.395 ± 0.025 | 0.5448 ± 0.0013 | 0.327 ± 0.011 | 0.345 ± 0.022 | 0.4926 ± 0.0049 | 0.39 ± 0.0011
23 | VVFVFIDLGLCV | 0.187 ± 0.0053 | 0.326 ± 0.035 | 0.243 ± 0.028 | 0.423 ± 0.0072 | 0.188 ± 0.019 | 0.223 ± 0.018 | 0.4359 ± 0.0027 | 0.266 ± 0.007
24 | GGICVVAYWRLA | 0.4654 ± 0.0011 | 0.518 ± 0.006 | 0.388 ± 0.034 | 0.564 ± 0.01 | 0.0948 ± 0.013 | 0.105 ± 0.021 | 0.173 ± 0.0065 | 0.198 ± 0.025
25 | TLRINSPFYFLS | 0.694 ± 0.058 | 0.703 ± 0.02 | 0.654 ± 0.019 | 0.7509 ± 0.0024 | 0.242 ± 0.011 | 0.282 ± 0.022 | 0.53 ± 0.021 | 0.419 ± 0.012
26 | WLVCAGWVVLSC | 0.153 ± 0.0026 | 0.2052 ± 0.00049 | 0.187 ± 0.023 | 0.2772 ± 0.0018 | 0.175 ± 0.0096 | 0.175 ± 0.026 | 0.222 ± 0.016 | 0.265 ± 0.033
27 | GVVWPLGWVWVE | 0.699 ± 0.016 | 0.7315 ± 0.0022 | 0.614 ± 0.012 | 0.7383 ± 0.0066 | 0.368 ± 0.014 | 0.421 ± 0.025 | 0.615 ± 0.0074 | 0.527 ± 0.05
28 | LMLISFLFLSLL | 0.487 ± 0.053 | 0.461 ± 0.021 | 0.448 ± 0.023 | 0.529 ± 0.031 | 0.568 ± 0.031 | 0.397 ± 0.023 | 0.48698 ± 5.5e-05 | 0.466 ± 0.056
29 | VVDIFLFFLFVC | 0.171 ± 0.0036 | 0.192 ± 0.027 | 0.243 ± 0.013 | 0.351 ± 0.021 | 0.186 ± 0.0069 | 0.145 ± 0.0086 | 0.216 ± 0.048 | 0.203 ± 0.015
30 | FKKIKGKIEKKN | 0.736 ± 0.021 | 0.897 ± 0.023 | 0.609 ± 0.042 | 0.726 ± 0.05 | 0.339 ± 0.061 | 0.336 ± 0.012 | 0.448 ± 0.0082 | 0.481 ± 0.023
